# According to patent publication US20100098696A1:
# How the values were obtained:
# [1] = molecular target: Murine FGFR-3(IIIc) expressed on L6 cells (murine) (UniProt Q61851); experiment: fluorescent antibody 200 nM on FGFR-3 transfected L6 cells, 1 h at 4° C., Odyssey imaging
# [2] = molecular target: Murine FGFR-3(IIIc) expressed on L6 cells (murine) (UniProt Q61851); experiment: fluorescent antibody 200 nM on FGFR-3 transfected L6 cells, 1 h at 37° C., Odyssey imaging
# [3] = molecular target: Murine FGFR-3(IIIc) expressed on L6 cells (murine) (UniProt Q61851); experiment: fluorescent antibody 200 nM on FGFR-3 transfected L6 cells, 1 h at 4° C. followed by acid stripping, Odyssey imaging
# [4] = molecular target: Murine FGFR-3(IIIc) expressed on L6 cells (murine) (UniProt Q61851); experiment: fluorescent antibody 200 nM on FGFR-3 transfected L6 cells, 1 h at 37° C. followed by acid stripping, Odyssey imaging
# Sequence of Murine FGFR-3(IIIc) expressed on L6 cells (murine) (Q61851 21-801): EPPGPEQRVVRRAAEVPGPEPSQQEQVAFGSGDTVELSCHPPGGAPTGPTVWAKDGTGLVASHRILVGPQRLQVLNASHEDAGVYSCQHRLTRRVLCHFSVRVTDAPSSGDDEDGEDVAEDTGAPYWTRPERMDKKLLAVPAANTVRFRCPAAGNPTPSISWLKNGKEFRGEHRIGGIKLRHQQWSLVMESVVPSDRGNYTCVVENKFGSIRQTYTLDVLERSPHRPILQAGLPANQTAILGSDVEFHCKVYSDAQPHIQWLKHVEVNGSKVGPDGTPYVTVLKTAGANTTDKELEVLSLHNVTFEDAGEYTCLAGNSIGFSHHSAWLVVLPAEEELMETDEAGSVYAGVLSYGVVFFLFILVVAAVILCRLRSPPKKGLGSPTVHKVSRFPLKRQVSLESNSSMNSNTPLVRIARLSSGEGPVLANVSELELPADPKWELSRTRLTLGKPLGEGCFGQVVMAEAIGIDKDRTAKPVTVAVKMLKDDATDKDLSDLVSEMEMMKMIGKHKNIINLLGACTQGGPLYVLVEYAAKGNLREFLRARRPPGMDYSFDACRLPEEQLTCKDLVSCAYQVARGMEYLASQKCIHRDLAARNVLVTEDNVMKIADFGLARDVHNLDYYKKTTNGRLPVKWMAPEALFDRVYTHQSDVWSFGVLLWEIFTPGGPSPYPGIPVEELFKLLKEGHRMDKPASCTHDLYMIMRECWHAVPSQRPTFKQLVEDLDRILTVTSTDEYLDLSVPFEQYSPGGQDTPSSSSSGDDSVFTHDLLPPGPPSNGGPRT
substance,measurement,setting,value
isotype-matched non-specific control antibody,relative fluorescent intensity,[1],1.5
same,relative fluorescent intensity,[2],1.1
same,relative fluorescent intensity,[3],0.6
same,relative fluorescent intensity,[4],1
